Laboratory results as given in patent US7687489B2, “Agent for treatment of cerebral ischemic diseases” (Ono Pharmaceutical Co., Ltd., priority 2001, dated 2010).

Test system: thrombin-induced focal cerebral ischemic model
Assay: Thrombin-induced focal cerebral ischemic model: survival and neurological symptom score
Assay type: in vivo, male Wistar rats
Method: Twenty male Wistar rats (8-weeks age) were used as one group. The rats were anesthetized with halothane, followed by incision and then subjected to carotid artery shunting. A polyethylene catheter containing thrombin (10 international units) was catheterized into the carotid artery, and […] of blood was sucked and reserved in the catheter for 10 minutes. Then, thrombus formed in the catheter was infused into the carotid artery together with thrombin (J. Cereb. Blood Flow Metab., 17, 123 (1997)).
The neurological symptoms of said rats were scored according to the method as described in Brain Res., 452, 323 (1988). The evaluation of score was carried out at 6 hours, 24 hours, 48 hours and 72 hours after infusion of thrombin, and the scores were accumulated. The survival period was determined by monitoring surviving or dead rats at intervals of one hour for the first 72 hours after the infusion of thrombin.
From forty minutes after thrombin infusion, t-PA (Activacin 100,000 international units, product of Kyowa Hakko Kogyo Co., Ltd.) was continuously administered in an amount of 33 μL/min to the anesthetized rats for 15 minutes. (R)-2-propyloctanoic acid (hereinafter referred to as compound A) in an amount of 10 mg/mL/kg was administered through tail vein of the rats three times at 6 hours, 24 hours and 48 hours after the infusion of thrombin.

[1] = accumulated score, rats surviving 72 h, average ± standard error

B1: t-PA: tissue plasminogen activator, thrombolytic agent (Activacin, product of Kyowa Hakko Kogyo Co., Ltd.) (protein, UniProt P00750 36-562, looked up)
Tissue-type plasminogen …: SYQVICRDEKTQMIYQQHQSWLRPVLRSNRVEYCWCNSGRAQCHSVPVKSCSEPRCFNGGTCQQALYFSDFVCQCPEGFAGKCCEIDTRATCYEDQGISYRGTWSTAESGAECTNWNSSALAQKPYSGRRPDAIRLGLGNHNYCRNPDRDSKPWCYVFKAGKYSSEFCSTPACSEGNSDCYFGNGSAYRGTHSLTESGASCLPWNSMILIGKVYTAQNPSAQALGLGKHNYCRNPDGDAKPWCHVLKNRRLTWEYCDVPSCSTCGLRQYSQPQFRIKGGLFADIASHPWQAAIFAKHRRSPGERFLCGGILISSCWILSAAHCFQERFPPHHLTVILGRTYRVVPGEEEQKFEVEKYIVHKEFDDDTYDNDIALLQLKSDSSRCAQESSVVRTVCLPPADLQLPDWTECELSGYGKHEALSPFYSERLKEAHVRLYPSSRCTSQHLLNRTVTDNMLCAGDTRSGGPQANLHDACQGDSGGPLVCLNDGRMTLVGIISWGLGCGQKDVPGVYTKVTNYLDWIRDNMRP
Survival rate after 72 hours (72 hours after thrombin infusion, 20 rats per group, * p<0.05 vs control (Log-rank test)): 35.0%
No. of surviving rats (72 hours after thrombin infusion, 20 rats per group, t-PA infused from 40 min for 15 min, compound A 10 mg/mL/kg i.v. at 6, 24, 48 h): 7
Neurological symptom score, 0 to 6 hours [1]: 3.4 ± 0.2
Neurological symptom score, 0 to 24 hours [1]: 3.4 ± 0.2
Neurological symptom score, 0 to 48 hours [1]: 3.1 ± 0.3
Neurological symptom score, 0 to 72 hours [1]: 3.0 ± 0.3
